Test [1] concerns the target CASP (encoded by CUX1; isoform 4) (UniProt Q13948). Put plainly: co-immunoprecipitation (IP: c-Myc) from cytosol, western blot quantification. The note with it: absence of detergent, n=4, parent: est. 1.0, read off a plot. Background: Immunoblotting shows a protein as a band on a membrane.
Test [2] concerns the target golgin-84 (also known as GOLGA5) (UniProt Q8TBA6). Described as above. The conditions noted are these: absence of detergent, n=4, parent: est. 1.0, read off a plot.

Sequence of golgin-84 (also known as GOLGA5) (Q8TBA6 whole entry): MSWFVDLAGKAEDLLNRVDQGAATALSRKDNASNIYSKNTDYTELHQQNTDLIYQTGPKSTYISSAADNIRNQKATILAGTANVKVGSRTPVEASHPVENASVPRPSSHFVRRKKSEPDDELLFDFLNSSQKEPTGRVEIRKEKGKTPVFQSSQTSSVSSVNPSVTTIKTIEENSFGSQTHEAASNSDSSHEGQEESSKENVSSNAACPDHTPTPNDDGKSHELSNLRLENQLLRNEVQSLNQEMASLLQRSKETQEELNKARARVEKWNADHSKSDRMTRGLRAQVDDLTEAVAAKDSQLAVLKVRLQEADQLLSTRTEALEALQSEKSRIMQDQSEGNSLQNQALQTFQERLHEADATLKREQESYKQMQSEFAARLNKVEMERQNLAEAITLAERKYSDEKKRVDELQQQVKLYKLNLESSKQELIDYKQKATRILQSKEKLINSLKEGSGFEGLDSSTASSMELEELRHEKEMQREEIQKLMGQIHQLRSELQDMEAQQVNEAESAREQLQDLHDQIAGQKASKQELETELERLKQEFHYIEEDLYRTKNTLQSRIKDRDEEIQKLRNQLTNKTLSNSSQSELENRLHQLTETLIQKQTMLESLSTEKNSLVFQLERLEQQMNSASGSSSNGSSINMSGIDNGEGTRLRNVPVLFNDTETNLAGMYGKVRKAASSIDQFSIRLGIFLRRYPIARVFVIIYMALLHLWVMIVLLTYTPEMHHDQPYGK
Sequence of CASP (encoded by CUX1; isoform 4) (Q13948 whole entry, canonical isoform): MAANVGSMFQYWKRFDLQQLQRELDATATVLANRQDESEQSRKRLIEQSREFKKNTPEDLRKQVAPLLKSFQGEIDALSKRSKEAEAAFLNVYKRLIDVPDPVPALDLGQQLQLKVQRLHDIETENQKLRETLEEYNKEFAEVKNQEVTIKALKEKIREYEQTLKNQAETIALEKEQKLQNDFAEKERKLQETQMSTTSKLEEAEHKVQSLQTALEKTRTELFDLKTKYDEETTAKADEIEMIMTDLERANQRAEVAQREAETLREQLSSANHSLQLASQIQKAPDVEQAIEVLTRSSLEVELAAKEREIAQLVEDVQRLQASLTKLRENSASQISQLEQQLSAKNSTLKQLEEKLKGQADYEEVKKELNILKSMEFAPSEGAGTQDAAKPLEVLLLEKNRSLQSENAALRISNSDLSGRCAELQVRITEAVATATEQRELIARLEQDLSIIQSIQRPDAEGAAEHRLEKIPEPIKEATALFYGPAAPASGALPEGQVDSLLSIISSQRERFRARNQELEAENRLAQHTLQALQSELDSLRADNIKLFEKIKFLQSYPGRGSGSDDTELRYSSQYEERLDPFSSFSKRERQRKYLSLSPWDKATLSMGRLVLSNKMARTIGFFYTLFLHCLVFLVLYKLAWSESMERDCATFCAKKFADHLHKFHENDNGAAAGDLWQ
Sequence of c-Myc–TRC40 (wild-type TRC40, also known as ASNA1), O43681 D74E; L190D; I193D (O43681 whole entry D74E/L190D/I193D): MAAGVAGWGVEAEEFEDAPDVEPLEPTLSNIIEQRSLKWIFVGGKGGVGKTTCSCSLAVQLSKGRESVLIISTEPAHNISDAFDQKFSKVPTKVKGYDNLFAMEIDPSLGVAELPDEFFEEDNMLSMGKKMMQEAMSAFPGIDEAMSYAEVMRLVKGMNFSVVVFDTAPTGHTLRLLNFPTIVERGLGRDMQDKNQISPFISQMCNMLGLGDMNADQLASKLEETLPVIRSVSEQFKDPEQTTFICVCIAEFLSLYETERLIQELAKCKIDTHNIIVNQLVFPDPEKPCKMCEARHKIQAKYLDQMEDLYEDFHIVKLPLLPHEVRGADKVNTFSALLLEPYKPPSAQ
Sequence of c-Myc–TRC40 (wild-type TRC40, also known as ASNA1), O43681 D74E; L190K; I193K (O43681 whole entry D74E/L190K/I193K): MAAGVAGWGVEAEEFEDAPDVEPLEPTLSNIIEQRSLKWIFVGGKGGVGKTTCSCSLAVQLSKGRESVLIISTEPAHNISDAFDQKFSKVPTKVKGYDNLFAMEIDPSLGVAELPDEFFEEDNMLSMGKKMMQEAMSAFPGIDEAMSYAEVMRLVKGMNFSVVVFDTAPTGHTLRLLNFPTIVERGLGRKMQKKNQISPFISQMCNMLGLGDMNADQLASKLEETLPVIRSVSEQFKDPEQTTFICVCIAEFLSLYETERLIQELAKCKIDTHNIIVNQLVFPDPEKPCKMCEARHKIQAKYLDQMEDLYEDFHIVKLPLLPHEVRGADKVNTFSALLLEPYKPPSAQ
Sequence of c-Myc–TRC40 (wild-type TRC40, also known as ASNA1), O43681 D74E (O43681 whole entry D74E): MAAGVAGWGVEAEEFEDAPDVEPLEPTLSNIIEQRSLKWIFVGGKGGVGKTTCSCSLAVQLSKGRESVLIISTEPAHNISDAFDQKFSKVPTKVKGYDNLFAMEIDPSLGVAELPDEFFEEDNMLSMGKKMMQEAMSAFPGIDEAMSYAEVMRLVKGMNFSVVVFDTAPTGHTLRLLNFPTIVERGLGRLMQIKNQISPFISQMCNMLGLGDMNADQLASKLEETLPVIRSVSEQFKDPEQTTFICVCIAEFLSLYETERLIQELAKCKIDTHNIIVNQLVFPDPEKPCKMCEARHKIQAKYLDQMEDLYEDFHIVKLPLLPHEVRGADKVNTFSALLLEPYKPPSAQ

Consider “c-Myc–TRC40 (wild-type TRC40, also known as ASNA1), O43681 D74E; L190D; I193D”, for which the values for the ratio to parent in test [1] and in test [2] were 23 and 21, respectively.

In the case of “c-Myc–TRC40 (wild-type TRC40, also known as ASNA1), O43681 D74E; L190K; I193K”, the ratio to parent came out at 14 in test [1] and 9 in test [2].

As to “c-Myc–TRC40 (wild-type TRC40, also known as ASNA1), O43681 D74E”, the ratio to parent in test [1] stood at 4.7; in test [2], 13.

(Values after paper PMC6633398.)
